The target in experiment [1] is human norovirus HuNoV (GII.4), virus from a positive stool sample (human norovirus GII.4). Kind of experiment: BLI. A general note: BLI is a label-free optical method that tracks binding on a fibre tip over time.
For experiment [2] the target is unchanged. As to the kind of experiment: SPR. In general terms: Surface plasmon resonance follows binding to a sensor surface in real time, without labels.
For experiment [3], the target named is viral hemorrhagic septicemia virus (VHSV) genotype IVa. As to the kind of experiment: SPR.
Experiment [4] concerns the target concanavalin A (Con A) isolated from Canavalia ensiformis (Jack bean) (Canavalia ensiformis). As to the kind of experiment: capture on a column of Con A-immobilised polyacrylate beads.
For experiment [5] the target is unchanged. The experiment is described as above. The source holds these as a separate data set.

We go through eight substances from publication PMC7112440.

Read-outs that look alike come from different tables or passages of the source.

By Kd is commonly meant a measure of binding affinity in units of concentration. In the case of “concanavalin A (Con A) isolated from Canavalia ensiformis (Jack bean) (natural protein)”, the association, fold over the commercial HuNoV antibody in experiment [1] stood at 10 fold. Besides, the Kd in experiment [2] was determined as 71.5 nM; in experiment [3], 710 nM. In experiment [4], “human norovirus HuNoV (GII.4), virus from a positive stool sample (complex)” yielded a HuNoV recovery (%) from lettuce of 89.5%, a HuNoV recovery (%) from milk of 60.8%, a HuNoV recovery (%) from strawberry of 70.8% and a virus recovery (%) above 90%. In experiment [5], this substance registered a virus recovery (%) of 90.6%. Substance “human norovirus HuNoV GI.3, virus from a positive stool sample (complex)” registered a virus recovery (%) in experiment [5] of 68.5%. With “human norovirus HuNoV GI.8, virus from a positive stool sample (complex)”, the virus recovery (%) in experiment [5] was 56.2%.

As to “human norovirus HuNoV GII.2, virus from a positive stool sample (complex)”, the virus recovery (%) in experiment [5] worked out at 85.2%. Still for that read-out and setting: the figure for “human norovirus HuNoV GII.6, virus from a positive stool sample (complex)” is 41.8%; for “human norovirus HuNoV GII.8, virus from a positive stool sample (complex)” it is 77.8%; for “human norovirus HuNoV GII.17, virus from a positive stool sample (complex)” it is 61.4%.
